Measured values: PMC3031242, “A novel neuron-enriched protein SDIM1 is down regulated in Alzheimer's brains and attenuates cell death induced by DNAJB4 over-expression in neuro-progenitor cells” (Molecular Neurodegeneration, 2011)

Target: the molecule itself
Assay: dimer-sized band on SDS-PAGE and Western blot; purified GST-SDIM1 (Coomassie and anti-SDIM1 blot, Figure 3A; anti-GST blot of the anti-GST immunoprecipitate, Figure 3D left panel lane 4)

B1: GST-SDIM1 fusion protein (domain or fragment, human, UniProt Q6ZPB5 27-146, looked up)
chain: AGPSPGARTTLGSPLSLWSIKTPSHIFCTRRAINLGFPSPPLVQLIFWSLNAGLDLYLCLISSCGFSQVFWPVEAFCSFSLSFFALALSHKFVICRLDQHIFSGFTKSLKNLPPCHRTDI
notes: first residue C27 mutated to A to increase solubility in E. coli; Cloned into pGEX-3X; GST itself is known to dimerise; also called recombinant GST-SDIM1; SDIM1-GST fusion protein; source: E. coli Rosetta cells, purified (glutathione column)
- binding result: binds
